Laboratory results published in patent publication US20230393135A1.

How the values were obtained:
[1] = molecular target: SARS-CoV-2 S protein trimer with the K417N/E484K/N501Y mutations (present in the B.1.351 variant) (SARS-CoV-2) (UniProt P0DTC2)
[2] = molecular target: SARS-CoV-2 S protein trimer with the Δ69-70 Y453F mutations (present in the mink variant) (SARS-CoV-2) (UniProt P0DTC2)

REGN10933 neutralizing antibody
fold loss in IC80 activity [1]: 61 fold | fold loss in IC80 activity [2]: 67 fold
